± gives the uncertainty stated by the source.
Assay: self-splicing fitness, log relative to wild type (ln ratio); higher = more splicing; Tetrahymena group I intron in knt gene, E. coli kanamycin selection, DiMSum; sequences stand for … in CUCUCU…GGAGGGAAAAGUUAUCAGGCAUGCACCUGGUAGCUAGUCUUUAAACCAAUAGAUUGCAUCGGUUUAAAAGGCAAGACCGUCAAAUUGCGGGAAAGGGGUCAACAGCCGUUCAGUACCAAGUCUCAGGGGAAACUUUGAGAUGGCCUUGCAAAGGGUAUGGUAAUAAGCUGACGGACAUGGUCCUAACCACGCAGCCAAGUCCUAAGUCAACAGAUCUUCUGUUGAUAUGGAUGCAGUUCACAGACUAAAUGUCGGUCGGGGAAGAUGUAUUCUUCUCAUAAGAUAUAGUCGGACCUCUCCUUAAUGGGAGCUAGCGGAUGAAGUGAUGCAACACUGGAGCCGCUGGGAACUAAUUUGUAUGCGAAAGUAUAUUGAUUAGUUUUGGAGUACUCGUGGUCG
Method in brief: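 Colonies from six replicate transformations of E. coli BL21(DE3) were pooled and amplicon-sequenced on an Illumina HiSeq 2500. The library placed an intron with all eight P1ex-region nucleotides randomised inside the knt kanamycin-resistance gene on pET-22b(+), and cells grew overnight at 37°C or 30°C on LB agar with or without 25 μg/mL kanamycin (plus 100 μg/mL carbenicillin, 50 μM IPTG, 0.2% rhamnose). Fitness is the DiMSum error-weighted combination of wild-type-normalised replicate fold changes, kanamycin versus none.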

Sequence	self-splicing fitness (ln) (30 °C)	self-splicing fitness (ln) (37 °C)
ACAGAGCAAUAUUACGAUGU	-3.39 ± 0.16	-2.38 ± 0.18
AGUGAGCAAUAUUACGGAUA	-2.82 ± 0.28	-0.678 ± 0.35
UAAUAGCAAUAUUACGAAUG	-1.37 ± 0.11	-0.382 ± 0.11
CCCUAGCAAUAUUACGAGCC	-3.5 ± 0.29	–
AGUGAGCAAUAUUACGCCGG	-2.67 ± 0.26	-1.81 ± 0.38
GUGGAGCAAUAUUACGUUGA	-3.13 ± 0.47	-1.5 ± 0.25
UUCUAGCAAUAUUACGGUUG	-1.64 ± 0.11	-1.78 ± 0.17
GUUUAGCAAUAUUACGGUUU	-1.32 ± 0.1	-0.0737 ± 0.13
UCGGAGCAAUAUUACGUUAA	-2.69 ± 0.31	-2.78 ± 0.32
CGACAGCAAUAUUACGCCCU	-1.46 ± 0.1	-0.191 ± 0.11
CGAUAGCAAUAUUACGAAUU	-4.06 ± 0.3	-2.41 ± 0.21
CUGCAGCAAUAUUACGCGUG	-1.92 ± 0.12	-1.67 ± 0.16
UAGUAGCAAUAUUACGUAGG	-3.19 ± 0.47	–
UGAGAGCAAUAUUACGUGUU	-3.49 ± 0.25	-1.36 ± 0.14
AUGCAGCAAUAUUACGGGAA	-2.83 ± 0.16	-1.92 ± 0.14
AGACAGCAAUAUUACGACAU	-0.107 ± 0.011	-0.0048 ± 0.032
AUUGAGCAAUAUUACGCACC	-1.98 ± 0.3	-1.84 ± 0.43
UUCAAGCAAUAUUACGCACU	0.0955 ± 0.12	-0.66 ± 0.14
CGGCAGCAAUAUUACGCUGG	-3.32 ± 0.16	-2.23 ± 0.21
ACUCAGCAAUAUUACGGUCC	-1.91 ± 0.11	-0.708 ± 0.14
GGAUAGCAAUAUUACGCUUU	-2.1 ± 0.16	-2.16 ± 0.21
UACUAGCAAUAUUACGGUGC	-3.29 ± 0.26	-2.04 ± 0.31
AGUCAGCAAUAUUACGAAUC	-0.727 ± 0.13	-0.18 ± 0.19
CCGCAGCAAUAUUACGCGGC	-4.42 ± 0.42	-2.55 ± 0.29
CGUGAGCAAUAUUACGCAGU	-3.4 ± 0.41	-2.03 ± 0.44

Sequence	self-splicing fitness (ln) (30 °C)	self-splicing fitness (ln) (37 °C)
UGUCAGCAAUAUUACGAUCG	0.238 ± 0.098	0.647 ± 0.12
CGAAAGCAAUAUUACGCUUG	-2.51 ± 0.087	-2.15 ± 0.091
UUAGAGCAAUAUUACGGCUA	-0.0336 ± 0.14	0.4 ± 0.17
UAGGAGCAAUAUUACGUCUC	-2.51 ± 0.49	–
AUACAGCAAUAUUACGGUGC	-3.65 ± 0.19	-1.74 ± 0.16
UAGCAGCAAUAUUACGACGU	-1.14 ± 0.073	-0.658 ± 0.1
GGAAAGCAAUAUUACGACCA	-0.87 ± 0.11	-0.318 ± 0.14
CGAAAGCAAUAUUACGGAAG	-0.208 ± 0.097	-0.546 ± 0.11
GCGCAGCAAUAUUACGAUCC	-0.589 ± 0.15	0.707 ± 0.24
CUGUAGCAAUAUUACGUCGU	-2.99 ± 0.31	-1.8 ± 0.28
UCACAGCAAUAUUACGGUGC	-3.04 ± 0.18	-1.47 ± 0.14
UUCCAGCAAUAUUACGUGAU	-1.08 ± 0.044	-0.294 ± 0.063
GGCUAGCAAUAUUACGCAAU	-0.887 ± 0.14	-0.69 ± 0.16
GCACAGCAAUAUUACGGGUU	-1.17 ± 0.041	-0.667 ± 0.055
CGGUAGCAAUAUUACGUUUG	-0.275 ± 0.082	-0.027 ± 0.098
UUGUAGCAAUAUUACGUUAA	-1.71 ± 0.14	-2.31 ± 0.21
UGCGAGCAAUAUUACGCGCC	-2.45 ± 0.26	-1.29 ± 0.27
GAUCAGCAAUAUUACGUUGA	-2.24 ± 0.17	-1.54 ± 0.15
AAGUAGCAAUAUUACGAUGU	-1.23 ± 0.1	-0.476 ± 0.12
CAUAAGCAAUAUUACGGAAU	-4.25 ± 0.23	-2.43 ± 0.18
CCCAAGCAAUAUUACGACGA	-2.93 ± 0.17	-1.49 ± 0.14
CGAGAGCAAUAUUACGGAUC	-3.76 ± 0.38	-1.51 ± 0.28
CAUCAGCAAUAUUACGGCGG	-0.364 ± 0.071	0.3 ± 0.12
AUGCAGCAAUAUUACGCUAC	-3.31 ± 0.21	-2.38 ± 0.23
GUUGAGCAAUAUUACGUCAC	-3.41 ± 0.43	-1.86 ± 0.23

Sequence	self-splicing fitness (ln) (30 °C)	self-splicing fitness (ln) (37 °C)
AGGCAGCAAUAUUACGCGGU	-3.61 ± 0.19	-2.98 ± 0.17
CUCGAGCAAUAUUACGAAGA	-2.78 ± 0.29	-1.64 ± 0.25
CGCAAGCAAUAUUACGUUCU	-1.53 ± 0.076	-1.33 ± 0.087
GAAGAGCAAUAUUACGUUCC	-4.33 ± 0.28	-2.04 ± 0.31
GACCAGCAAUAUUACGAAGU	-1.45 ± 0.09	-0.269 ± 0.1
GGUUAGCAAUAUUACGCACU	-2.48 ± 0.28	-2.32 ± 0.25
UAAGAGCAAUAUUACGGAGU	-3.26 ± 0.23	-2.21 ± 0.25
GGCAAGCAAUAUUACGGCCA	-1.24 ± 0.17	-0.0702 ± 0.17
GUAGAGCAAUAUUACGGUCG	-2.63 ± 0.19	-1.8 ± 0.19
AAUCAGCAAUAUUACGAAAG	-1.78 ± 0.12	-0.272 ± 0.13
AUGAAGCAAUAUUACGAUCU	-0.0854 ± 0.072	0.317 ± 0.088
CUCUAGCAAUAUUACGGGCG	-2.25 ± 0.17	-2.36 ± 0.19
AGUAAGCAAUAUUACGCUCG	-0.783 ± 0.17	-0.584 ± 0.21
ACCUAGCAAUAUUACGUCAA	-2.03 ± 0.2	-1.78 ± 0.17
UCCGAGCAAUAUUACGUCGG	-2.97 ± 0.44	-1.86 ± 0.35
GCGGAGCAAUAUUACGGGCG	-1.83 ± 0.13	-1.21 ± 0.17
CCGUAGCAAUAUUACGUAAA	-3.22 ± 0.13	-2.38 ± 0.23
GUGGAGCAAUAUUACGAGGG	-4.4 ± 0.33	–
GUCCAGCAAUAUUACGCAUU	-0.492 ± 0.053	0.587 ± 0.073
ACCUAGCAAUAUUACGUACU	-0.755 ± 0.052	-0.159 ± 0.062
CAACAGCAAUAUUACGGUCC	-2.56 ± 0.17	-1.22 ± 0.16
GACCAGCAAUAUUACGGAUC	-1.45 ± 0.095	-0.489 ± 0.12
CUAAAGCAAUAUUACGUAGC	-3.73 ± 0.2	-2.94 ± 0.37
CUAUAGCAAUAUUACGGUUC	-3.27 ± 0.25	-2.12 ± 0.39
UGCAAGCAAUAUUACGAACU	-0.489 ± 0.14	0.0308 ± 0.12

Sequence	self-splicing fitness (ln) (30 °C)	self-splicing fitness (ln) (37 °C)
CCAAAGCAAUAUUACGCCUU	-3.62 ± 0.34	-2.88 ± 0.32
AUGUAGCAAUAUUACGCAAG	-1.8 ± 0.14	-0.627 ± 0.14
GGAGAGCAAUAUUACGCCUU	-2.58 ± 0.35	–
GCUGAGCAAUAUUACGAUGU	-2.49 ± 0.1	-0.739 ± 0.12
UCAAAGCAAUAUUACGACUC	-2.99 ± 0.38	-0.37 ± 0.23
UCACAGCAAUAUUACGCACC	-2.35 ± 0.3	–
GGCGAGCAAUAUUACGGCAG	–	-1.94 ± 0.36
UUCAAGCAAUAUUACGUCUA	-0.495 ± 0.09	0.538 ± 0.081
CCCGAGCAAUAUUACGCGGC	-3.67 ± 0.4	-1.88 ± 0.29
CUAAAGCAAUAUUACGCUAA	-5.16 ± 0.45	–
UCCUAGCAAUAUUACGUGUC	-3.06 ± 0.34	-2.71 ± 0.38
UGCGAGCAAUAUUACGCACC	-3.32 ± 0.31	-2.72 ± 0.42
CCCUAGCAAUAUUACGAUUA	-1.88 ± 0.44	-1.33 ± 0.34
GACCAGCAAUAUUACGUACC	-0.415 ± 0.08	-0.106 ± 0.098
AAUGAGCAAUAUUACGGUAA	-1.61 ± 0.34	-2.24 ± 0.4
UAGGAGCAAUAUUACGGGAC	-3.63 ± 0.4	-2.85 ± 0.47
CCUUAGCAAUAUUACGUGAU	-3.66 ± 0.2	-2 ± 0.24
GCAAAGCAAUAUUACGGCGC	-2.1 ± 0.19	-0.824 ± 0.2
GGGAAGCAAUAUUACGGGCA	-1.9 ± 0.19	0.154 ± 0.21
UUCCAGCAAUAUUACGUAUA	-1.01 ± 0.17	-1.26 ± 0.16
GAAAAGCAAUAUUACGGUCG	-0.446 ± 0.065	-0.0366 ± 0.1
GCUCAGCAAUAUUACGACUC	-0.0981 ± 0.14	0.646 ± 0.14

Reference: the supplement of paper PMC7877785
